*1 amine or outer side, *2 acyl side, *3 side chain or, on linkers, in order; H or OH if unused. Where no end group is shown, it is not given here. Side-chain parts run from the residue outwards. [ ]: non-standard residue; d: D form. The star is where a group is joined. Decanoyl(10-(4-HOOC-PhO)) = O=C(O)c1ccc(OCCCCCCCCCC(=O)*)cc1; γGlu = O=C(O)[C@H](CCC(=O)[*:2])N[*:1]; Hexanoyl(6-Ph) = O=C(CCCCCc1ccccc1)*; C12 diacid = O=C(O)CCCCCCCCCCC(=O)*; 13‑carboxytridecanoyl = C14 diacid; AEEA = NCCOCCOCC(=O)O; Aib = CC(C)(N)C(=O)O; Ahx = NCCCCCC(=O)O
B1: GLP-1 derivative of Example 115: [Aib8,Lys18,Arg34]-GLP-1-(7-37)-peptide (peptide)
peptide: HXEGTFTSDVSKYLEGQAAKEFIAWLVRGRG
modifications: Aib8; Lys18 and Lys26 each Nε-acylated with 10-(4-carboxyphenoxy)decanoyl-OEG-OEG-gGlu
B2: GLP-1 derivative of Example 108: [Aib8,Lys18,Arg34]-GLP-1-(7-37)-peptide (peptide)
peptide: B1 peptide
modifications: Aib8; Lys18 and Lys26 each Nε-acylated with 11-carboxyundecanoyl-gGlu-gGlu-OEG-OEG
B3: GLP-1 derivative of Example 103: [Aib8,Lys18,Arg34]-GLP-1-(7-37)-peptide (peptide)
peptide: B1 peptide
modifications: Aib8; Lys18 and Lys26 each Nε-acylated with 13-carboxytridecanoyl-gGlu-gGlu-OEG-OEG
B4: GLP-1 derivative of Example 93: [Aib8,Lys18,Arg34]-GLP-1-(7-37)-peptide (peptide)
peptide: B1 peptide
modifications: Aib8; Lys18 and Lys26 each Nε-acylated with 10-(4-carboxyphenoxy)decanoyl-gGlu-OEG-OEG

What was measured:
[1] = target: T1, human GLP-1 receptor (human, UniProt P43220 24-463); experiment: SPA, 2.0% vs 0.005% HSA
T1 construct: whole, on cells; Used as purified membranes of the transfected hamster cells, not whole cells; also called hGLP-1
Description: (§1) A shift in the binding affinity, $IC50$, is an indication that the derivative in question binds to albumin, and thereby a prediction of a potential protracted pharmacokinetic profile of the derivative in question in animal models.
(§2) 25 ul (microliter) of test compounds are added to Optiplate. HSA ("high albumin" experiment containing 2% HSA), or buffer ("low albumin" experiment containing 0.005% HSA), was added (50 ul). 5-10 µg protein/sample was added (50 ul) corresponding to 0.1-0.2 mg protein/ml (to be preferably optimised for each membrane preparation). SPA-particles (Wheatgerm agglutinin SPA beads, Perkin Elmer, #RPNQ0001) were added in an amount of 0.5 mg/well (50 ul). […] The plates were sealed with PlateSealer and incubated for 120 minutes at 30° C. while shaking. The plates were centrifuged (1500 rpm, 10 min) and counted in Topcounter.

[2] = target: T1, human GLP-1 receptor; experiment: SPA, displacement of 125I-GLP-1(7-36)NH2, 0.005% HSA
Description: as §1, §2

Row | Binder | ratio IC50 high HSA/IC50 low HSA [1] | IC50 [2]
1 | H[Aib]EGTFTSDVSK([AEEA-AEEA-γGlu-Decanoyl(10-(4-HOOC-PhO))])YLEEQAAK([AEEA-AEEA-γGlu-Decanoyl(10-(4-HOOC-PhO))])EFIAWLVQGRG [GLP-1 derivative of Example 2: [Aib8,Lys18,Glu22,Gln34]-GLP-1-(7-37)-peptide] | > 1 | < 1000 nM
2 | H[Aib]EGTFTSDVSK([AEEA-AEEA-γGlu-Decanoyl(10-(4-HOOC-PhO))])YLEEQAVREFIAK([AEEA-AEEA-γGlu-Decanoyl(10-(4-HOOC-PhO))])LVRGRG [GLP-1 derivative of Example 76: [Aib8,Lys18,Glu22,Val25,Arg26,Lys31,Arg34]-GLP-1-(7-37)-peptide] | > 1 | < 1000 nM
3 | H[Aib]EGTFTSDVSK([AEEA-AEEA-γGlu-γGlu-γGlu-13‑carboxytridecanoyl])YLEEQAVREFIAK([AEEA-AEEA-γGlu-γGlu-γGlu-13‑carboxytridecanoyl])LVRGRG [GLP-1 derivative of Example 102: [Aib8,Lys18,Glu22,Val25,Arg26,Lys31,Arg34]-GLP-1-(7-37)-peptide] | > 1 | < 1000 nM
4 | B1 | > 1 | < 1000 nM
5 | B2 | > 1 | < 1000 nM
6 | H[Aib]EGTFTSDVSK([AEEA-AEEA-AEEA-AEEA-γGlu-13‑carboxytridecanoyl])YLEEQAVREFIAK([AEEA-AEEA-AEEA-AEEA-γGlu-13‑carboxytridecanoyl])LVRGRG [GLP-1 derivative of Example 130: [Aib8,Lys18,Glu22,Val25,Arg26,Lys31,Arg34]-GLP-1-(7-37)-peptide] | > 1 | < 1000 nM
7 | H[Aib]EGTFTSDVSK([AEEA-AEEA-γGlu-13‑carboxytridecanoyl])YLEGQAVREFIAK([AEEA-AEEA-γGlu-13‑carboxytridecanoyl])LVRGRG [GLP-1 derivative of Example 112: [Aib8,Lys18,Val25,Arg26,Lys31,Arg34]-GLP-1-(7-37)-peptide] | > 1 | < 1000 nM
8 | B3 | > 1 | < 1000 nM
9 | H[Aib]EGTFTSDVSK([AEEA-AEEA-γGlu-13‑carboxytridecanoyl])YLEEQAVREFIAK([AEEA-AEEA-γGlu-13‑carboxytridecanoyl])LVRGRG [GLP-1 derivative of Example 74: [Aib8,Lys18,Glu22,Val25,Arg26,Lys31,Arg34]-GLP-1-(7-37)-peptide] | > 1 | < 1000 nM
10 | H[Aib]EGTFTSDVSK([AEEA-AEEA-γGlu-13‑carboxytridecanoyl])YLEEQAAREFIK([AEEA-AEEA-γGlu-13‑carboxytridecanoyl])WLVRGRG [GLP-1 derivative of Example 51: [Aib8,Lys18,Glu22,Arg26,Lys30,Arg34]-GLP-1-(7-37)-peptide] | > 1 | < 1000 nM
11 | H[Aib]EGTFTSDVSK([AEEA-AEEA-γGlu-Decanoyl(10-(4-HOOC-PhO))])YLEGQAAK([AEEA-AEEA-γGlu-Decanoyl(10-(4-HOOC-PhO))])EFIAWLVQGRG [GLP-1 derivative of Example 92: [Aib8,Lys18,Gln34]-GLP-1-(7-37)-peptide] | > 1 | < 1000 nM
12 | H[Aib]EGTFTSDVSK([AEEA-AEEA-γGlu-13‑carboxytridecanoyl])YLEEQAAREFIAK([AEEA-AEEA-γGlu-13‑carboxytridecanoyl])LVRGRG [GLP-1 derivative of Example 73: [Aib8,Lys18,Glu22,Arg26,Lys31,Arg34]-GLP-1-(7-37)-peptide] | > 1 | < 1000 nM
13 | B4 | > 1 | < 1000 nM
14 | H[Aib]EGTFTSDVSK([AEEA-AEEA-γGlu-Decanoyl(10-(4-HOOC-PhO))])YLEEQAVRK([AEEA-AEEA-γGlu-Decanoyl(10-(4-HOOC-PhO))])FIAWLVQGRG [GLP-1 derivative of Example 41: [Aib8,Lys18,Glu22,Val25,Arg26,Lys27,Gln34]-GLP-1-(7-37)-peptide] | > 1 | < 1000 nM
15 | H[Aib]EGTFTSDVSKYLEGQAAVKFIAWLVRGRG (not fully specified (residues 12, 21), also called Chem. 87) [GLP-1 derivative of Example 68: [Aib8,Lys18,Val26,Lys27,Arg34]-GLP-1-(7-37)-peptide] | > 1 | < 1000 nM
16 | H[Aib]EGTFTSDVSK([AEEA-AEEA-γGlu-Decanoyl(10-(4-HOOC-PhO))])YLEEQAAREFIAWLVRGRK([AEEA-AEEA-γGlu-Decanoyl(10-(4-HOOC-PhO))]) [GLP-1 derivative of Example 1: [Aib8,Lys18,Glu22,Arg26,Arg34,Lys37]-GLP-1-(7-37)-peptide] | > 1 | < 1000 nM
17 | H[Aib]EGTFTSDVSK([AEEA-AEEA-γGlu-Decanoyl(10-(4-HOOC-PhO))])YLEEQAAK([AEEA-AEEA-γGlu-Decanoyl(10-(4-HOOC-PhO))])EFIAWLVRGRG [GLP-1 derivative of Example 88: [Aib8,Lys18,Glu22,Arg34]-GLP-1-(7-37)-peptide] | > 1 | < 1000 nM
18 | H[Aib]EGTFTSDVSK([AEEA-AEEA-γGlu-Decanoyl(10-(4-HOOC-PhO))])YLEEQAAREFIAK([AEEA-AEEA-γGlu-Decanoyl(10-(4-HOOC-PhO))])LVRGRG [GLP-1 derivative of Example 3: [Aib8,Lys18,Glu22,Arg26,Lys31,Arg34]-GLP-1-(7-37)-peptide] | > 1 | < 1000 nM
19 | H[Aib]EGTFTSDVSK([AEEA-AEEA-γGlu-13‑carboxytridecanoyl])YLEEQAAK([AEEA-AEEA-γGlu-13‑carboxytridecanoyl])EFIAWLVRGRG [GLP-1 derivative of Example 100: [Aib8,Lys18,Glu22,Arg34]-GLP-1-(7-37)-peptide] | > 1 | < 1000 nM
20 | HAEGTFTSDVSK([γGlu-AEEA-AEEA-γGlu-13‑carboxytridecanoyl])YLEEQAVREFIAK([γGlu-AEEA-AEEA-γGlu-13‑carboxytridecanoyl])LVRGRG [GLP-1 derivative of Example 111: [Lys18,Glu22,Val25,Arg26,Lys31,Arg34]-GLP-1-(7-37)-peptide] | > 1 | < 1000 nM
21 | HAEGTFTSDVSK([AEEA-AEEA-γGlu-2‑(2-(trifluoromethyl)phenyl)acetyl])YLEK([AEEA-AEEA-γGlu-2‑(2-(trifluoromethyl)phenyl)acetyl])QAAREFIAWLVQGRG [GLP-1 derivative of Example 125: [Lys18,Lys22,Arg26,Gln34]-GLP-1-(7-37)-peptide] | > 1 | < 1000 nM
22 | HAEGTFTSDVSK([AEEA-AEEA-γGlu-13‑carboxytridecanoyl])YLEEQAAHK([AEEA-AEEA-γGlu-13‑carboxytridecanoyl])FIAHLVQGRG [GLP-1 derivative of Example 119: [Lys18,Glu22,His26,Lys27,His31,Gln34]-GLP-1-(7-37)-peptide] | > 1 | < 1000 nM
23 | HAEGTFTSDVSK([AEEA-AEEA-γGlu-13‑carboxytridecanoyl])YLEEQAVREFIAK([AEEA-AEEA-γGlu-13‑carboxytridecanoyl])LVRGRG-NH2 [GLP-1 derivative of Example 133: [Lys18,Glu22,Val25,Arg26,Lys31,Arg34]-GLP-1-(7-37)-peptide amide] | > 1 | < 1000 nM
24 | HAEGTFTSDVSK([AEEA-AEEA-γGlu-13‑carboxytridecanoyl])YLEEQAVRK([AEEA-AEEA-γGlu-13‑carboxytridecanoyl])FIAHLVQGRG [GLP-1 derivative of Example 118: [Lys18,Glu22,Val25,Arg26,Lys27,His31,Gln34]-GLP-1-(7-37)-peptide] | > 1 | < 1000 nM
25 | HAEGTFTSDVSK([AEEA-AEEA-γGlu-γGlu-13‑carboxytridecanoyl])YLEK([AEEA-AEEA-γGlu-γGlu-13‑carboxytridecanoyl])QAAREFIAWLVQGRG [GLP-1 derivative of Example 126: [Lys18,Lys22,Arg26,Gln34]-GLP-1-(7-37)-peptide] | > 1 | < 1000 nM
26 | HAEGTFTSDVSK([AEEA-AEEA-γGlu-2‑(4-(4-fluorophenoxy)phenyl)acetyl])YLEK([AEEA-AEEA-γGlu-2‑(4-(4-fluorophenoxy)phenyl)acetyl])QAAREFIAWLVQGRG [GLP-1 derivative of Example 120: [Lys18,Lys22,Arg26,Gln34]-GLP-1-(7-37)-peptide] | > 1 | < 1000 nM
27 | HAEGTFTSDVSK([AEEA-AEEA-γGlu-C12 diacid])YLEEQAVREFIAK([AEEA-AEEA-γGlu-C12 diacid])LVRGRG [GLP-1 derivative of Example 124: [Lys18,Glu22,Val25,Arg26,Lys31,Arg34]-GLP-1-(7-37)-peptide] | > 1 | < 1000 nM
28 | HAEGTFTSDVSK([AEEA-AEEA-γGlu-Ahx-γGlu-Hexanoyl(6-Ph)])YLEGQAAK([AEEA-AEEA-γGlu-Ahx-γGlu-Hexanoyl(6-Ph)])EFIAWLVRGRG [GLP-1 derivative of Example 129: [Lys18,Arg34]-GLP-1-(7-37)-peptide] | > 1 | < 1000 nM
